Data on 1 substance can be found in PMC4263166.

The target in the test is Spleen tyrosine kinase (Syk) (UniProt P43405). The experiment in a line: affinity purification of mIgG2a-BCRs with protein A/G agarose beads, anti-Syk immunoblot, band intensity quantified. The note with it: no inhibitor, Ramos cells. On the technique in general: Immunoblotting shows a protein as a band on a membrane.

Turning to “mIgG2a-BCR (wild-type mouse γ2am expressed in Ramos cells, with Igα/β) (from UniProt P11912;P40259) YF”, the response (Syk/γ2am (normalized band intensity)) is 1.7 (stimulated for 5 min with polyclonal goat anti-mouse IgG antibodies) and 0.3 (unstimulated (0 min α-IgG)).
